In publication PMC9035890:

Experiments:
[1] = target: Recombinant biotinylated protein L (Thermo Fisher 21189) (UniProt Q51918); test: SPR; Biacore T200, 25°C; biotinylated ligand captured on a CAP chip through the Biotin CAPture reagent; NISTmAb sample as analyte at 200 nmol/L in PBS-P+ pH 7.4, 50 μL/min, 100 s association, 300 s dissociation; response at the end of the association phase divided by that of NISTmAb Bex, mean of three independent experiments
[2] = target: Recombinant biotinylated protein A (Thermo Fisher 29989) (UniProt P38507); test: as above

Substance	binding relative to NISTmAb Bex [1] [%]	binding relative to NISTmAb Bex [2] [%]
NISTmAb oxidised in solution, 0.3% H2O2, 32 h (0.3%Nox32hr) (antibody)	92.6	38.5
NISTmAb oxidised in solution, 0.3% H2O2, 30 min (0.3%Nox0.5hr) (antibody)	99.3	94.7
